Measurements: patent US20220048967A1 (published 2022)
Numbered stars: 1 amine (or outer) side, 2 acyl side, 3 side chain; on linkers, the order of the positions; unused ones are H or OH. Square brackets hold non-standard residues; d marks the D form. Side chains are listed from the residue outwards. Ends that are not written are not given here. * marks the point of attachment. C18 diacid = O=C(O)CCCCCCCCCCCCCCCCC(=O)*; γGlu = O=C(O)[C@H](CCC(=O)[*:2])N[*:1]; AEEA = NCCOCCOCC(=O)O; Aib = CC(C)(N)C(=O)O

T1: human gastric inhibitory peptide receptor (GIPR) (human, UniProt P48546 22-466)
T1 sequence (looked up): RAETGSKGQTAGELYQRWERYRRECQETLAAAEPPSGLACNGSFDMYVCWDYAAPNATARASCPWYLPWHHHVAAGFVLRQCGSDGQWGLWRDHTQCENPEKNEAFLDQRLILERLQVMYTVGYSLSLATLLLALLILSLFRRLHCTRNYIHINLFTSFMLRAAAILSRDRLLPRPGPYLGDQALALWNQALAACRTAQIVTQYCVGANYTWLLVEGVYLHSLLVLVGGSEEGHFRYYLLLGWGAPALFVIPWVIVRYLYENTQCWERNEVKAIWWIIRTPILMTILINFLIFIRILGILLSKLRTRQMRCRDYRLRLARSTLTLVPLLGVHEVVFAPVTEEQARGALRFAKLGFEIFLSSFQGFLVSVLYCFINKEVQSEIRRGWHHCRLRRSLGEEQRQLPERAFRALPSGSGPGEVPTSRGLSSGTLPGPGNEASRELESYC


Columns and labels:
[1] = biological target: T1, human gastric inhibitory peptide …; assay: cell-based or functional assay
[2] = biological target: human GLP-1 receptor (GLP-1R) (human, UniProt P43220 24-463); assay: cell-based or functional assay

Row | Binder | hGIPR cAMP EC50 ratio [1] | hGIPR cAMP Rel EC50 [1] | hGLP1R cAMP EC50 ratio [2] | hGLP1R cAMP Rel EC50 [2]
1 | Y[Aib]EGTFTSDYSILLDKK([AEEA-AEEA-γGlu-C18 diacid])AQ[Aib]EFIEYLIAGG-NH2 (N-terminus assumed; SMILES CC[C@H](C)[C@H](NC(=O)[C@H](CC(C)C)NC(=O)[C@H](Cc1ccc(O)cc1)NC(=O)[C@H](CCC(=O)O)NC(=O)[C@@H](NC(=O)[C@H](Cc1ccccc1)NC(=O)[C@H](CCC(=O)O)NC(=O)C(C)(C)NC(=O)[C@H](CCC(N)=O)NC(=O)[C@H](C)NC(=O)[C@H](CCCCNC(=O)COCCOCCNC(=O)COCCOCCNC(=O)CC[C@H](NC(=O)CCCCCCCCCCCCCCCCC(=O)O)C(=O)O)NC(=O)[C@H](CCCCN)NC(=O)[C@H](CC(=O)O)NC(=O)[C@H](CC(C)C)NC(=O)[C@H](CC(C)C)NC(=O)[C@@H](NC(=O)[C@H](CO)NC(=O)[C@H](Cc1ccc(O)cc1)NC(=O)[C@H](CC(=O)O)NC(=O)[C@H](CO)NC(=O)[C@@H](NC(=O)[C@H](Cc1ccccc1)NC(=O)[C@@H](NC(=O)CNC(=O)[C@H](CCC(=O)O)NC(=O)C(C)(C)NC(=O)[C@@H](N)Cc1ccc(O)cc1)[C@@H](C)O)[C@@H](C)O)[C@@H](C)CC)[C@@H](C)CC)C(=O)N[C@@H](C)C(=O)NCC(=O)NCC(N)=O) [Example 297] | 3 | 0.0451 nM | 0.445 | 0.111 nM
2 | YXEGTFTSDYSIXLDKKAQXAFIEYLIEGGPSSG (Aib2, αMeL13, (2-[2-(2-Amino-ethoxy)-ethoxy]-acetyl)2-(γ-Glu)-CO-(CH2)16-CO2H on K17, Aib20, C-terminal NH2) [Example 300] | 5.38 | 0.0234 nM | 0.636 | 0.0867 nM
3 | YXEGTXTSDYSILLDKKAQXAFIEYLIEGGPSSG (Aib2, αMeF(2F)6, (2-[2-(2-Amino-ethoxy)-ethoxy]-acetyl)2-(γ-Glu)-CO-(CH2)16-CO2H on K17, Aib20, C-terminal NH2) [Example 302] | 3.78 | 0.0308 nM | 1.96 | 0.0275 nM
4 | YXEGTFTSDYSIXLDKKAQXEFIEYLIAGGPSSG (Aib2, αMeL13, (2-[2-(2-Amino-ethoxy)-ethoxy]-acetyl)2-(γ-Glu)-CO-(CH2)16-CO2H on K17, Aib20, C-terminal NH2) [Example 306] | 3.97 | 0.0191 nM | 0.912 | 0.0711 nM
5 | YXEGTXTSDYSILLDKKAQXEFIEYLIEGGPSSG (Aib2, αMeF6, (2-[2-(2-Amino-ethoxy)-ethoxy]-acetyl)2-(γ-Glu)-CO-(CH2)16-CO2H on K17, Aib20, C-terminal NH2) [Example 308] | 4.06 | 0.0262 nM | 1.45 | 0.0392 nM
6 | YXEGTXTSDYSILLDKKAQXEFIEYLIAGGPSSG (Aib2, αMeF6, (2-[2-(2-Amino-ethoxy)-ethoxy]-acetyl)2-(γ-Glu)-CO-(CH2)16-CO2H on K17, Aib20, C-terminal NH2) [Example 310] | 5.56 | 0.0176 nM | 1.43 | 0.0283 nM
7 | YXEGTXTSDYSILLDKKAQXAFIEYLIEGGPSSG (Aib2, αMeF6, (2-[2-(2-Amino-ethoxy)-ethoxy]-acetyl)2-(γ-Glu)-CO-(CH2)16-CO2H on K17, Aib20, C-terminal NH2) [Example 301] | 4.11 | 0.0346 nM | 1.61 | 0.0441 nM
8 | YXEGTXTSDYSILLDKKAQXAFIEYLIAGGPSSG (Aib2, αMeF6, (2-[2-(2-Amino-ethoxy)-ethoxy]-acetyl)2-(γ-Glu)-CO-(CH2)16-CO2H on K17, Aib20, C-terminal NH2) [Example 309] | 1.64 | 0.0389 nM | 1.27 | 0.033 nM
9 | YXEGTFTSDYSIXLDKKAQXEFIEYLIEGGPSSG (Aib2, αMeL13, (2-[2-(2-Amino-ethoxy)-ethoxy]-acetyl)2-(γ-Glu)-CO-(CH2)16-CO2H on K17, Aib20, C-terminal NH2) [Example 304] | 2.68 | 0.0296 nM | 0.481 | 0.191 nM
10 | YXEGTXTSDYSILLDEKAQXAFIEYLIEGGPSSG (Aib2, αMeF6, (2-[2-(2-Amino-ethoxy)-ethoxy]-acetyl)2-(γ-Glu)-CO-(CH2)16-CO2H on K17, Aib20, C-terminal NH2) [Example 307] | 2.48 | 0.0285 nM | 1.29 | 0.0437 nM
11 | YXEGTFTSDYSIXLDEKAQXAFIEYLIEGGPSSG (Aib2, αMeL13, (2-[2-(2-Amino-ethoxy)-ethoxy]-acetyl)2-(γ-Glu)-CO-(CH2)16-CO2H on K17, Aib20, C-terminal NH2) [Example 303] | 4.2 | 0.0254 nM | 0.602 | 0.104 nM
12 | YXEGTXTSDYSILLDEKAQXAFIEYLIEGGPSSG (Aib2, αMeF(2F)6, (2-[2-(2-Amino-ethoxy)-ethoxy]-acetyl)2-(γ-Glu)-CO-(CH2)16-CO2H on K17, Aib20, C-terminal NH2) [Example 311] | 3.5 | 0.0334 nM | 1.04 | 0.0393 nM
13 | Y[Aib]EGTFTSDYSILLDKK([AEEA-AEEA-γGlu-C18 diacid])AQ[Aib]AFLEYLIEGGPSSG-NH2 (N-terminus assumed; SMILES CC[C@H](C)[C@H](NC(=O)[C@H](CC(C)C)NC(=O)[C@H](Cc1ccc(O)cc1)NC(=O)[C@H](CCC(=O)O)NC(=O)[C@H](CC(C)C)NC(=O)[C@H](Cc1ccccc1)NC(=O)[C@H](C)NC(=O)C(C)(C)NC(=O)[C@H](CCC(N)=O)NC(=O)[C@H](C)NC(=O)[C@H](CCCCNC(=O)COCCOCCNC(=O)COCCOCCNC(=O)CC[C@H](NC(=O)CCCCCCCCCCCCCCCCC(=O)O)C(=O)O)NC(=O)[C@H](CCCCN)NC(=O)[C@H](CC(=O)O)NC(=O)[C@H](CC(C)C)NC(=O)[C@H](CC(C)C)NC(=O)[C@@H](NC(=O)[C@H](CO)NC(=O)[C@H](Cc1ccc(O)cc1)NC(=O)[C@H](CC(=O)O)NC(=O)[C@H](CO)NC(=O)[C@@H](NC(=O)[C@H](Cc1ccccc1)NC(=O)[C@@H](NC(=O)CNC(=O)[C@H](CCC(=O)O)NC(=O)C(C)(C)NC(=O)[C@@H](N)Cc1ccc(O)cc1)[C@@H](C)O)[C@@H](C)O)[C@@H](C)CC)C(=O)N[C@@H](CCC(=O)O)C(=O)NCC(=O)NCC(=O)N1CCC[C@H]1C(=O)N[C@@H](CO)C(=O)N[C@@H](CO)C(=O)NCC(N)=O) [Example 299] | 0.146 | 0.932 nM | 0.0244 | 2.54 nM
14 | Y[Aib]EGTFTSDYSILLDKK([AEEA-AEEA-γGlu-C18 diacid])AQKAFIEYLIEGGPSSG-NH2 (N-terminus assumed; SMILES CC[C@H](C)[C@H](NC(=O)[C@H](CC(C)C)NC(=O)[C@H](Cc1ccc(O)cc1)NC(=O)[C@H](CCC(=O)O)NC(=O)[C@@H](NC(=O)[C@H](Cc1ccccc1)NC(=O)[C@H](C)NC(=O)[C@H](CCCCN)NC(=O)[C@H](CCC(N)=O)NC(=O)[C@H](C)NC(=O)[C@H](CCCCNC(=O)COCCOCCNC(=O)COCCOCCNC(=O)CC[C@H](NC(=O)CCCCCCCCCCCCCCCCC(=O)O)C(=O)O)NC(=O)[C@H](CCCCN)NC(=O)[C@H](CC(=O)O)NC(=O)[C@H](CC(C)C)NC(=O)[C@H](CC(C)C)NC(=O)[C@@H](NC(=O)[C@H](CO)NC(=O)[C@H](Cc1ccc(O)cc1)NC(=O)[C@H](CC(=O)O)NC(=O)[C@H](CO)NC(=O)[C@@H](NC(=O)[C@H](Cc1ccccc1)NC(=O)[C@@H](NC(=O)CNC(=O)[C@H](CCC(=O)O)NC(=O)C(C)(C)NC(=O)[C@@H](N)Cc1ccc(O)cc1)[C@@H](C)O)[C@@H](C)O)[C@@H](C)CC)[C@@H](C)CC)C(=O)N[C@@H](CCC(=O)O)C(=O)NCC(=O)NCC(=O)N1CCC[C@H]1C(=O)N[C@@H](CO)C(=O)N[C@@H](CO)C(=O)NCC(N)=O) [Example 296] | 0.564 | 0.198 nM | 0.82 | 0.0867 nM
15 | Y[Aib]EGTFTSDYSILLDKK([AEEA-AEEA-γGlu-C18 diacid])AQ[Aib]AFVEYLIEGGPSSG-NH2 (N-terminus assumed; SMILES CC[C@H](C)[C@H](NC(=O)[C@H](CC(C)C)NC(=O)[C@H](Cc1ccc(O)cc1)NC(=O)[C@H](CCC(=O)O)NC(=O)[C@@H](NC(=O)[C@H](Cc1ccccc1)NC(=O)[C@H](C)NC(=O)C(C)(C)NC(=O)[C@H](CCC(N)=O)NC(=O)[C@H](C)NC(=O)[C@H](CCCCNC(=O)COCCOCCNC(=O)COCCOCCNC(=O)CC[C@H](NC(=O)CCCCCCCCCCCCCCCCC(=O)O)C(=O)O)NC(=O)[C@H](CCCCN)NC(=O)[C@H](CC(=O)O)NC(=O)[C@H](CC(C)C)NC(=O)[C@H](CC(C)C)NC(=O)[C@@H](NC(=O)[C@H](CO)NC(=O)[C@H](Cc1ccc(O)cc1)NC(=O)[C@H](CC(=O)O)NC(=O)[C@H](CO)NC(=O)[C@@H](NC(=O)[C@H](Cc1ccccc1)NC(=O)[C@@H](NC(=O)CNC(=O)[C@H](CCC(=O)O)NC(=O)C(C)(C)NC(=O)[C@@H](N)Cc1ccc(O)cc1)[C@@H](C)O)[C@@H](C)O)[C@@H](C)CC)C(C)C)C(=O)N[C@@H](CCC(=O)O)C(=O)NCC(=O)NCC(=O)N1CCC[C@H]1C(=O)N[C@@H](CO)C(=O)N[C@@H](CO)C(=O)NCC(N)=O) [Example 298] | 2.87 | 0.043 nM | 0.507 | 0.0957 nM
